This series concerns the target T1, hEndoV (FLJ35220, human endonuclease V) (Homo sapiens, UniProt Q8N8Q3 1-282).
T1 sequence: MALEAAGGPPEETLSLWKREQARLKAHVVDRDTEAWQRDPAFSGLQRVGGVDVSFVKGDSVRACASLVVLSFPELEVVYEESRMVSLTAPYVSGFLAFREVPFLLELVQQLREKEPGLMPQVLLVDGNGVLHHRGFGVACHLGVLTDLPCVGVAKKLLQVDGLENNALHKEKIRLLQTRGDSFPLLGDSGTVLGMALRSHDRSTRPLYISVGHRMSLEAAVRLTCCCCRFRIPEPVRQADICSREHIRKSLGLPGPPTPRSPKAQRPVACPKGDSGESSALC
As to the kind of experiment: EMSA; 5 mM CaCl2; EMSA: 0.2 nM 32P substrate, 10 mM HEPES-KOH pH 8.0, 1 mM DTT, 2% glycerol, 5 mM CaCl2, 4 °C 30 min; nondenaturing 8% PAGE. (In general: A gel shift assay detects complexes by their altered migration in electrophoresis.)

B1: dsRNA without inosine (dsRNA)
RNA 1: CUGUAUGAUGAAGAUGCUGAC
RNA 2: GUCAGCAUCUUCAUCAUACAG
For the molecule B1, the binding result was “binds”.

The values above are taken from publication PMC3741642.
